The text below walks through data of FireProtDB (doi:10.1002/pro.5560041213).

Sequences and labels used below:
B1: High-potential iron-sulfur protein isozyme 1, P04168 (parent)
chain: EPRAEDGHAHDYVNEAADASGHPRYQEGQLCENCAFWGEAVQDGWGRCTHPDFDEVLVKAEGWCSVYAPAS

The variants in this series derive from B1. The following applies: Halorhodospira halophila, Thermal, DSC, reversible: yes, structure 2HIP, whole UniProt chain shown.

On to EPRAEDGHAHDWVNEAADASGHPRYQEGQLCENCAFWGEAVQDGWGRCTHPDFDEVLVKAEGWCSVYAPAS [Y12W], for which the Tm (pH 7, MOPS 20 mM) came to 37.4 °C.

Turning to EPRAEDGHAHDHVNEAADASGHPRYQEGQLCENCAFWGEAVQDGWGRCTHPDFDEVLVKAEGWCSVYAPAS [Y12H], the Tm by setting is: (pH 7, MOPS 20 mM) 42.2 °C; (pH 9, TAPS 20 mM) 39 °C.

Take EPRAEDGHAHDFVNEAADASGHPRYQEGQLCENCAFWGEAVQDGWGRCTHPDFDEVLVKAEGWCSVYAPAS [Y12F]: the Tm worked out at 54.4 °C (pH 9, TAPS 20 mM); 54.2 °C (pH 10, CAPS 20 mM); 37.1 °C (pH 10.8, CHES 20 mM).
